Patent US7414023B2, “Peptide ligands for prostate specific antigen” (Licentia Ltd., priority 2000, dated 2008)
Each block holds one molecule with its values, some of them ahead of it. Bridge positions count the residues as written; N and C are the ends. Square brackets hold non-standard residues; d marks the D form. Ends that are not written are not given here. Peptide text beside a SMILES is read from it. Ahx = NCCCCCC(=O)O

What was measured:
PSA [1] = biological target: T1, PSA (Homo sapiens, UniProt P07288); experiment: Enzyme activity of PSA with chromogenic substrate S-2586; type: biochemical; design: PSA was purified from human seminal fluid as described previously (3); from tissue; host or cells: human seminal fluid; conditions: for effect of derivatization or labeling on PSA binding activity, read as effect on PSA enzyme activity (in words): PSA (0.33 mM / 0.33 μM as printed); for effect of derivatization or labeling on PSA binding activity, read as effect on PSA enzyme activity (in words) / effect on the enzyme activity of PSA (in words): S-2586; for effect on the enzyme activity of PSA (in words): synthetic peptides in 100-fold molar excess
T1 sequence (P07288 25-261): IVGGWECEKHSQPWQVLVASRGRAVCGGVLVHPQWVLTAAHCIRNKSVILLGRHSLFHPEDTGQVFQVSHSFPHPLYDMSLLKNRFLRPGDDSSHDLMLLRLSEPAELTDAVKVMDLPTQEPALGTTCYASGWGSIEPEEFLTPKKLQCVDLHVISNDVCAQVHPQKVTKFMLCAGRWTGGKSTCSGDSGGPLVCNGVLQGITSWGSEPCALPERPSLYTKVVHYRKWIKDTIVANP
Protocol: The enzyme activity of PSA was studied in the presence of peptides alone or together with Zn^2+ by using the chymotrypsin substrate S-2586 (MeO-Suc-Arg-Pro-Tyr-pNA) (Chromogenix, Mölndal, Sweden). […] PSA (333 nM) was incubated with a 1-100-fold molar excess of GST-peptide or 100-fold excess of synthetic peptide in TBS buffer, pH 7.8 containing 0.5 g/L BSA for 1 h at 22° C. The effect of Zn^2+ on the enzyme activity of PSA was studied by including 1-200 μM of ZnCl2 in the reaction buffer. The combined effect of peptides and Zn2+ on the enzyme activity of PSA was studied by incubating PSA (333 nM) with peptide (333 nM) in the buffer containing 1-200 μM Zn^2+ for 1 h. After addition of substrate to a final concentration 0.2 mM, the absorbance was monitored at 5-min intervals for 2 h at 405 nm on a Labsystems Multiskan MCC/340 photometer (Labsystems, Helsinki, Finland). As a control, the effect of wild type GST on the enzyme activity of PSA was tested.
In the experiments, PSA (0.33 μM) was incubated with increasing concentrations of GST-C-4 (0-100-fold molar excess) for 1 h, after which the chromogenic substrate S-2586 was added and enzyme activity was monitored by measuring the absorbance at 405 nm. Data represent mean values from duplicate wells ±SE.
PSA (0.33 μM) was incubated with chemically synthesized peptides (100-fold molar excess) for 1 h, after which the chromogenic substrate S-2586 was added and enzyme activity was monitored by measuring the absorbance at 405 nm.
Because zinc is known to inhibit the enzyme activity of PSA, we further characterized the effect of GST-peptides on the enzyme activity of PSA by assessing the combined effect of peptides and Zn^2+. […] The effect of GST-C-4 and Zn^2+ on enzyme activity was determined by incubating PSA (0.33 μM) with the same molar concentration of GST-C-4 and various concentrations of Zn^2+. The reaction was monitored by measuring absorbance at 405 nm after addition of the chromogenic substrate S-2586. […] Data represent mean values from duplicate wells ±SE.
(§1) Data represent mean values from duplicate wells ±SE.
As control the enzyme activity of PSA alone was measured.
as §1
20 μg of the peptide was iodinated by the Iodogen method. After iodination the peptide was purified by using C18 Sep-Pak column.

PSA [2] = biological target: T1, PSA; experiment: Proteolytic cleavage of IGF-BP-3 by PSA, IGF-BP-3 IFMA; type: biochemical; design: PSA was purified from human seminal fluid as described previously (3); from tissue; host or cells: human seminal fluid; conditions: PSA 5 μg/mL, 100-fold molar excess of synthetic peptide, IGF-BP-3 70 ng/mL, 16 h at 37° C.; PSA alone 30%
Protocol: The extent of the cleavage of the substrate was quantitated by monitoring the decrease in IGF-BP-3 immunoreactivity due to proteolytic cleavage of it. PSA (5 μg/mL) was incubated with IGF-BP-3 (70 ng/mL) for 16 h at 37° C. with 100-fold molar excess of peptides to PSA and measured for IGF-BP3 immunoreactivity by IFMA as described (33). As control, the peptide was also added to the reaction mixture containing PSA and IGF-BP3 just before starting the immunoassay to quantify the possible interference of the peptide in the IFMA for IGF-BP-3.
In the experiments, PSA (5 μg/mL) in TBS buffer, pH 7.8 alone or with 100-fold molar excess of peptide was incubated with IGF-BP-3 (70 ng/mL) for 16 h at 37° C., after which the concentration of intact IGF-BP-3 was determined by IFMA.

PSA [3] = biological target: T1, PSA; experiment: Inhibition of GST-peptide binding to PSA by chemically synthesized peptides; design: PSA was purified from human seminal fluid as described previously (3); from tissue; conditions: synthetic peptide GACVAYCIEHHCWTCGA in 20-fold molar excess
Protocol: Peptides A1 and C4 were synthesized by standard solid phase Merrifield peptide synthesis using fmoc-chemistry. The peptides were assayed for binding with PSA by studying the ability of the synthetic peptide to inhibit the binding of the corresponding GST peptide with PSA. Synthetic peptide (0-333 nM) and the corresponding GST peptide (167 nM) were incubated with PSA captured by MAb 5E4 for 1 h. After this, the wells were washed, after which Eu^3+-labeled anti GST antibody was added. After further incubation and washing the bound fluorescence was measured as described above.
PSA had been captured by anti-PSA MAb in the microtitration wells. The binding was measured by IFMA.

PSA [4] = biological target: T1, PSA; experiment: GST-peptide IFMA: binding of GST-peptides to PSA captured by MAb 5E4; design: PSA was purified from human seminal fluid as described previously (3); from tissue; host or cells: human seminal fluid; conditions: GST fusion proteins
Protocol: After washing the binding of GST-peptide was quantified by IFMA using an Eu-labelled anti GST antibody as tracer. Data represent mean values from duplicate wells ±standard error (SE).
The solid phase antibodies used in the IFMAs were coated onto microtitration wells at a concentration of 5 μg/mL in TBS for 16 h at 22° C., the solution was discarded and the wells were saturated with 10 g/L bovine serum albumin in TBS for 3 h at 22° C. The antibodies used as tracers were labeled with a Eu^3+ chelate as described previously (26). The assay buffer was 50 mM Tris-HCL, pH 7.7, 150 mM NaCl, 33.3 μM bovine serum albumin, 1 μM bovine globulin.
The binding of individual phage clones to PSA was tested by IFMA (phage IFMA). In the phage IFMA, about 30 ng of PSA was added to MAb 5E4 coated wells for 1 h. After washing (Buffer: 150 mM NaCl, 7.7 mM NaN3, 0.2 g/L Tween 20), 15 μL of phage and 200 μl assay buffer was added. After incubation for 1 h, the wells were washed and filled with 200 μl of assay buffer containing 50 ng europium-labeled anti phage monoclonal antibody recognizing the M13 coat protein of the phage. After incubation for 60 min, the wells were washed 4 times, and enhancement solution (EG&G-Wallac) was added. The fluorescence was quantified with a 1234 DELFIA Research fluorometer (EG&G-Wallac). Binding of GST-peptide to PSA was determined by an IFMA (GST-peptide IFMA) similar to the one for phage peptides except that Eu^3+-labeled antibody to GST was used. Various amounts of GST-peptide or wild type GST were added to wells containing captured PSA in 200 μL of assay buffer and incubated for 1 h. To test the effect of Zn^2+ on the binding between GST-peptide and PSA, various concentrations of Zn^2+ (1-200 μM) were added to the buffer in the incubation step of GST-peptide and PSA. In competition experiments, GST-peptide (167 nM) or wild type GST were first incubated with increasing amounts of PSA (0-333 nM) in 0.5% BSA-TBS buffer for 60 min, then added to wells containing PSA captured by MAb 5E4. After incubation for 1 h the wells were washed and Eu^3+-labeled anti GST antibody was added. After further incubation and washing the bound fluorescence was measured as described above. When assessing the binding of the GST-peptides to other proteinases, including chymotrypsin, cathepsin G, trypsin, and kallikrein, these proteinases were captured by their specific antibodies coated to the microtitration well. Recombinant hK2 was captured by MAb 5E4, which is known to bind hK2 (24). For assessing the binding of the GST-peptides with complexes of PSA, including PSA-ACT and PSA-α1-protease inhibitor (PSA-API) (28), the complexes were captured by antibodies against ACT and API, respectively. After capturing the various proteinases or PSA complexes, GST-peptide was added and binding was monitored as described above for the GST-peptide IFMA.

PSA [5] = biological target: T1, PSA; experiment: PSA activity measurements with modified peptides, substrate S-2586 (Example 5); type: biochemical; design: PSA was purified from human seminal fluid as described previously (3); from tissue; host or cells: human seminal fluid; key to activity of modified peptide (active / inactive): PSA-peptide/PSA ratio above 1.1 was interpreted to be active; below 1.1 as inactive; conditions: for activity of modified peptide (active / inactive): from PSA-peptide/PSA ratio; for effect of modification on the activity of the peptide (in words): compared with parent A-1, B-2 or C-4
Protocol: PSA activity measurements: The effect of different peptides on the activity of PSA was studied by using chymotrypsin substrate S-2586 (MeO-Suc-Arg-Pro-Tyr-pNA) (Chromogenix, Mölndal, Sweden). 77 pmoles (2 μg) of PSA, substrate and 10 μmoles of different peptides were incubated in Tris-buffer (10 mM Tris and 150 mM NaCl at pH 7.8) with 0.2 mM concentration of the substrate at room temperature. PSA reaction without any peptide was used as basic level control. Reaction was measured after 60 minutes incubation at […] using Multiscan RC photometer (Labsystems, Finland). The effect of the peptides was calculated as a ratio from the OD value of PSA-peptide complex to PSA alone after 60 minutes incubation.

Molecule: 1251-labeled C4: C4-peptide (CVAYCIEHHCWTC) iodinated by the Iodogen method (not fully specified (residue 4, bridges); cysteine pairing not given here)
effect of derivatization or labeling on PSA binding activity, read as effect on PSA enzyme activity (in words) (PSA [1]; 30-fold molar excess): almost completely destroyed its binding activity

Molecule: CC[C@H](C)[C@@H]1NC(=O)[C@@H]2CSSC[C@H](NC(=O)[C@H](Cc3c[nH]cn3)NC(=O)[C@H](Cc3c[nH]cn3)NC(=O)[C@H](CCC(=O)O)NC1=O)C(=O)N[C@@H](Cc1c[nH]c3ccccc13)C(=O)N[C@@H]([C@@H](C)O)C(=O)N[C@H](C(=O)O)CSSC[C@H](N)C(=O)N[C@@H](C(C)C)C(=O)N[C@@H](C)C(=O)N[C@@H](Cc1ccc(O)cc1)C(=O)N2 [Peptide C-4] (H-CVAYCIEHHCWTC-OH; disulfide 1-13, 5-10; N-terminus and C-terminus assumed)
cleavage of IGF-BP-3 by PSA in the presence of peptide (PSA [2]): about 70%
inhibition of the binding of the corresponding GST-peptide to PSA (PSA [3]): about 70%

Molecule: CLSTCAQSCRISC [Peptide D-1]
binding to PSA in GST-peptide IFMA (in words) (PSA [4]): did not show significant binding

activity of modified peptide (active / inactive) (PSA [5]): inactive
Molecule: CVAYAIQHHC (disulfide 1-10 (inferred)) [Peptide C-4-4]

Molecule: CVAYCIEHHCATC [Peptide C-4-6]
activity of modified peptide (active / inactive) (PSA [5]): inactive

Molecule: CVAYCIQHHCWTC [Peptide C-4-3]
effect of modification on the activity of the peptide (in words) (PSA [5]): did not affect
activity of modified peptide (active / inactive) (PSA [5]): active

effect of modification on the activity of the peptide (in words) (PSA [5]): activity remained
Molecule: CVFAHNYNALVC (disulfide 1-12 (inferred)) [Peptide B-2-3]

effect of modification on the activity of the peptide (in words) (PSA [5]): did not affect
Molecule: CVFAHNYNYLVC (disulfide 1-12 (inferred)) [Peptide B-2-2]

effect of modification on the activity of the peptide (in words) (PSA [5]): did not affect
Molecule: CVFTSNYAFC (disulfide 1-10 (inferred)) [Peptide A-1-4]

effect of modification on the activity of the peptide (in words) (PSA [5]): did not affect
Molecule: CVFTSNYAYC (disulfide 1-10 (inferred)) [Peptide A-1-2]

effect of modification on the activity of the peptide (in words) (PSA [5]): did not affect
Molecule: CVFTSNYNYC (disulfide 1-10 (inferred)) [Peptide A-1-3]

Molecule: Eu-labelled C4-peptide: C4 peptide labelled with Eu-chelate, C18 fractions 26-28 (CVAYCIEHHCWTC; disulfide 1-13, 5-10; also: Eu-chelate label, site not given here)
effect of Eu-labelled peptide fractions on enzyme activity of PSA (PSA [1]; PSA 0.33 μM, 100 μL of C18 fractions 26-28): enhanced the enzyme activity of PSA strongly

Molecule: SKSKSKS—aca-CVAYCIEHHCWTC (SKSKSKS[Ahx]CVAYCIEHHCWTC; not fully specified (bridges); printed as SKSKSKS—aca-CVAYCIEHHCWTC; cysteine pairing not given here) [SKSKSKS (SEQ ID NO:47)-tailed C4]
effect of derivatization or labeling on PSA binding activity, read as effect on PSA enzyme activity (in words) (PSA [1]; 30-fold molar excess): did not affect the binding activity

Molecule: Tc99m-labeled C4: reduced C4-peptide labeled with 99mTc between thiol-sulfurs (HDP method) (CVAYCIEHHCWTC; also: 99mTc complexed between reduced thiol sulfurs (HDP method))
reduction of binding by technetium labeling (PSA [1]; PSA 0.33 μM, 30-fold molar excess, compared with unlabelled C4): about 50%

binding to PSA in GST-peptide IFMA (in words) (PSA [4]): did not bind
Molecule: Wild type GST: wild type glutathione S-transferase without inserted peptide, control [reference compound]
effect on the enzyme activity of PSA (in words) (PSA [1]): did not affect
effect on the enzyme activity of PSA (in words) (PSA [1]; listed as wild type GST): no effect
